Results on 2 molecules are retold here after publication PMC6572826, “Native top-down mass spectrometry provides insights into the copper centers of membrane-bound methane monooxygenase” (Nature Communications, 2019).

To fix the notation:
B2: PmoA subunit of particulate methane monooxygenase from Methylomicrobium alcaliphilum 20Z (20Z-pMMO) (natural protein, UniProt G4SZ63 2-247, looked up)
chain: SASQSAVRSRAEAVKVSRTFDYMILFTVFFVVLGGYHIHYMLTGGDWDFWTDWKDRRLWVTVAPIVSITFPAAVQAVLWWRYRIAWGATLCVLGLLLGEWINRYFNFWGWTYFPVNFVFPSNLMPGAIVLDVILMLSNSMTLTAVVGGLAWGLLFYPGNWPIIAPLHVPVEYNGMMMTLADLQGYHYVRTGTPEYIRMVEKGTLRTFGKDVAPVSAFFSGFVSILIYFLWHFFGSWFGSEKFVQAA
modifications: initiator methionine removed (MetOFF); N-terminal acetylation (NtAc) on the new N-terminus
notes: PmoA subunit of pMMO, Methylomicrobium alcaliphilum 20Z; theoretical mass of the unmodified subunit 28,257.1 Da; found without the initiator methionine and N-terminally acetylated; also called 20Z-pMMO PmoA; source: endogenous, Mm. alcaliphilum 20Z membranes, solubilized with DDM, purified by anion exchange chromatography

In assay [1] the target is B2. Nature of the assay: native MS; pMMO in POPC nanodiscs (MSP2N2 or MSP1E3D1), 200 mM ammonium acetate, pH 7.2; subunits ejected from the pMMO-nanodisc complex by CID at the source (MS^2) and fragmented (MS^3); no intact mass of the complex obtained. The conditions noted are these: both partners purified.
Assay [2] concerns the target T1, PmoB subunit of particulate methane monooxygenase from Methylomicrobium alcaliphilum 20Z (20Z-pMMO) (Methylomicrobium alcaliphilum 20Z, UniProt G4SZ64 33-414, methyl-lysine at Lys 36 (~100% stoichiometry)).
T1 construct: PmoB subunit of pMMO, Methylomicrobium alcaliphilum 20Z; residues His 33 to Ile 414 after cleavage of the N-terminal signal peptide; theoretical mass 42,147.17 Da; also called 20Z-pMMO PmoB; source: endogenous, Mm. alcaliphilum 20Z membranes, solubilized with DDM, purified by anion exchange chromatography
T1 sequence (looked up): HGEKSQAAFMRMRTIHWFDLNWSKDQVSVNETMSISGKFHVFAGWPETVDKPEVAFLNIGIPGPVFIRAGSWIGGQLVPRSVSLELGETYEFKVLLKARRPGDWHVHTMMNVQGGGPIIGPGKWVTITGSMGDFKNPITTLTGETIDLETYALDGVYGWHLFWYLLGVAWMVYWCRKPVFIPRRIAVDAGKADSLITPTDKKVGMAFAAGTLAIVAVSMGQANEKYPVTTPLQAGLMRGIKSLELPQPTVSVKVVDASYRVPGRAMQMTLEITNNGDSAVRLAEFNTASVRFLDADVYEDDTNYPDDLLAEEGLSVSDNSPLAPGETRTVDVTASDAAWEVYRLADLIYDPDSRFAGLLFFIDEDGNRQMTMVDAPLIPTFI
Nature of the assay: native MS; pMMO solubilized in DDM, exchanged into 200 mM ammonium acetate, pH 7.2, 0.155% (w/v) Triton X-100; protomer ejected from the micelle (MS^1), then subunits ejected from the protomer by collisional activation (MS^2). The conditions noted are these: both partners purified.

B1: PmoC subunit of particulate methane monooxygenase from Methylomicrobium alcaliphilum 20Z (20Z-pMMO), truncated proteoform (natural protein, UniProt G4SZ62 7-250, looked up)
chain: SVKADAAEAPLLNKKNIIAGASLYLVFYAWVRWYEGVYGWSAGLDSFAPEFETYWMNFLYIEMVLEVLTASVLWGYIWKSRDRKVMSITPREELRRHFTHWTWLMMYGIAIYFGASYFTEQDGTWHQTIVRDTDFTPSHIIEFYLSYPIYIITGGASFLYAKTRLPTYQQGLSLQYLVVVVGPFMILPNVGLNEWGHTFWFMEELFVAPLHYGFVFFGWSALGVLGVINIELGALSKLLKKDLA
notes: PmoC subunit of pMMO, Methylomicrobium alcaliphilum 20Z; the major species is a truncated form without the first six N-terminal residues (MAATTE); theoretical mass of the whole subunit 28,851.4 Da; A minor PmoC species without the initiator methionine and with N-terminal acetylation was also seen from nanodiscs; also called truncated PmoC; 20Z-pMMO PmoC; source: endogenous, Mm. alcaliphilum 20Z …
Regarding B1, the binding result in assay [1] and in assay [2] was “binds” throughout.

B2: in assay [2], the binding result was “binds”.
